Here are results for one substance from paper PMC9159944.

Assay [1] has as its target Chimeric S. cerevisiae MCM^(Mcm3-YDF, ybbR-LD655-Mcm6) with a humanized Mcm3 subunit, loaded on origin DNA (S. cerevisiae | human) (UniProt P29469).
The target of assay [2] is S. cerevisiae recombinant MCM^ybbR-LD655-Mcm6 (MCM2–MCM7 complex), loaded on origin DNA (S. cerevisiae) (UniProt P29469).

Chain of UniProt P29469 (P29469 whole entry, looked up, change not shown, tested part not stated): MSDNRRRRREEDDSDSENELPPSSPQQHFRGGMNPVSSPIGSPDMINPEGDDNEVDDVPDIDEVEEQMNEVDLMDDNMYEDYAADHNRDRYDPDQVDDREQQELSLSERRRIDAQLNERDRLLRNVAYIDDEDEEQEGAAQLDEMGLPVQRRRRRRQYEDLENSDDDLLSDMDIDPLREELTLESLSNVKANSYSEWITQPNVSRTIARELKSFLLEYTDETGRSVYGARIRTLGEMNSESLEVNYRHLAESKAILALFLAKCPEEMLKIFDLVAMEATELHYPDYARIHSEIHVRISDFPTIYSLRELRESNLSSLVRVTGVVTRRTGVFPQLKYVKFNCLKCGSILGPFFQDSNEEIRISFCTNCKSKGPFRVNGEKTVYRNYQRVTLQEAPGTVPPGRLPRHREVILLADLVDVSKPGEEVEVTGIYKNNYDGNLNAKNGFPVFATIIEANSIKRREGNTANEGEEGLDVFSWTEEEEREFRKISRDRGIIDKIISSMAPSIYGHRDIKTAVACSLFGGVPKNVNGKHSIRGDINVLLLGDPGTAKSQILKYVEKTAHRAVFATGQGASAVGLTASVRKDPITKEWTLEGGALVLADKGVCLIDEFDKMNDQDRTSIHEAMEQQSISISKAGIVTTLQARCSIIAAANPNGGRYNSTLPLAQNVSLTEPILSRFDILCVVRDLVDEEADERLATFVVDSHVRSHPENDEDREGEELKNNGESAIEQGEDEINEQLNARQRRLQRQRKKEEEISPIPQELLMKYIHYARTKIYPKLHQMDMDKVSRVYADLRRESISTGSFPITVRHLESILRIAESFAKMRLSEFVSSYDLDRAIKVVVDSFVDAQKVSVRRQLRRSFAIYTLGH

Turning to “Human recombinant cohesin^(STAG1, SCC1-Halo) (from UniProt Q14683 1-1233; Q9UQE7 1-1217; O60216 1-631; Q8WVM7 1-1258) (complex)”, the values for the fraction of cohesin pausing of the total observation time on encountering origin-bound MCM (single-molecule cohesin translocation assay on licensed DNA, 0.15 M NaCl) in assay [1] and in assay [2] were 43% and 6.4%, respectively.
